Substitutions are numbered along the chain they refer to. In names and notes the source's numbering stands.
T1: hVEGF109 (human, UniProt P15692-4 34-135, limits assumed)
T1 construct: Numbers count on the mature 165-amino acid VEGF, not on the precursor; also called human VEGF (hVEGF 109)
T1 sequence (looked up): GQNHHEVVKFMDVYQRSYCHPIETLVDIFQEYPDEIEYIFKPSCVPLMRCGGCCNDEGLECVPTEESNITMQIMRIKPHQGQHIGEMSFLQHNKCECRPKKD

T2: human Fc fusion of Ang2 protein (human, UniProt O15123 275-496, limits assumed)
T2 construct: Captured by anti-human Fc on the CM5 chip; also called hAng2 (SPR flow cell); not shown: human Fc
T2 sequence (looked up): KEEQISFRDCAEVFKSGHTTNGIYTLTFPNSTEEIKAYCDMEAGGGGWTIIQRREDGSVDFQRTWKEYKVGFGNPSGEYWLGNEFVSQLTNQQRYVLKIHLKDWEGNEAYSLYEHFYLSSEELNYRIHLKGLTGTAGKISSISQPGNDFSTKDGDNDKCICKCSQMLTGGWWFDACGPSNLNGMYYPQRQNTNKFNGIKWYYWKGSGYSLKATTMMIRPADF

T3: His-tagged human Ang2 (hAng2his8) (human, UniProt O15123 19-496, limits assumed)
T3 construct: neither is tied to this construct; not shown: His tag (his8)
T3 sequence (looked up): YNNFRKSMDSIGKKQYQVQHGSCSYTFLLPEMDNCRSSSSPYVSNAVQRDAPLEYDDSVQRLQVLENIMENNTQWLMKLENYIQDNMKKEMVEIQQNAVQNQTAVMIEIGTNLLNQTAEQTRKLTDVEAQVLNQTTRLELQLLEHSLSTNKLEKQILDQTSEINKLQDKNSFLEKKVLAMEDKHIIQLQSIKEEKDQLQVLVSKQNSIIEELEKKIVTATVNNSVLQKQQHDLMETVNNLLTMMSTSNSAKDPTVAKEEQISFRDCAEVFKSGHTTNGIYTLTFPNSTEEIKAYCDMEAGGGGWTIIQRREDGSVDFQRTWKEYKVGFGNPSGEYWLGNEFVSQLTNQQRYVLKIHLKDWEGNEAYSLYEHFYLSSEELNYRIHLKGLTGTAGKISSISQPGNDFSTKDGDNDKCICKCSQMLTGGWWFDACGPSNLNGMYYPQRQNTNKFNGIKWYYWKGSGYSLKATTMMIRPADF

B1: 5A12 4.2 LC.Q89H/LC.L93K ("D") (Fab, V domains shown)
VH: EVQLVESGGGLVQPGGSLRLSCAASGFTISDYWIHWVRQAPGKGLEWVAGITPAGGYTYYADSVKGRFTISADTSKNTAYLQMNSLRAEDTAVYYCARFVFFLPYAMDYWGQGTLVTVSS
VL: DIQMTQSPSSLSASVGDRVTITCRASQFLSSFGVAWYQQKPGKAPKLLIYGASSLYSGVPSRFSGSGSGTDFTLTISSLQPEDFATYYCHQGLKSPLTFGQGTKVEIK
notes: 5A12 4.2 variant; Fab on phage in the IC50 assay, purified Fab in SPR
B2: 5A12 4.2 LC.Q89H (Fab, V domains shown)
VH: B1 VH
VL: B1 VL with K94L
notes: 5A12 4.2 variant; Fab on phage in the IC50 assay; also called LC-89H
B3: 5A12 4.2 (Fab, V domains shown)
VH: B1 VH
VL: B1 VL with H90Q, K94L
notes: also called Fab5A12 4.2
B4: 5A12 4.2 LC.Q89W (Fab, V domains shown)
VH: B1 VH
VL: B1 VL with H90W, K94L
notes: 5A12 4.2 variant; Fab on phage in the IC50 assay; also called LC-89W
B5: 5A12 4.2.16.2 (Fab, V domains shown)
VH: B1 VH with H35Y, T58E, A106V
VL: B1 VL with A35G, H90W, K94L
notes: purified Fab as analyte in SPR; also called DAF16.2
B6: 5A12 4.2 LC.A34N (Fab, V domains shown)
VH: B1 VH
VL: B1 VL with A35N, H90Q, K94L
notes: 5A12 4.2 variant; Fab on phage in the IC50 assay; also called LC-34N
B7: 5A12 4.2 LC.L93K (Fab, V domains shown)
VH: B1 VH
VL: B1 VL with H90Q
notes: 5A12 4.2 variant; Fab on phage in the IC50 assay; also called LC-93K
B8: 5A12 4.2 LC.L92S (Fab, V domains shown)
VH: B1 VH
VL: B1 VL with H90Q, L93S, K94L
notes: 5A12 4.2 variant; Fab on phage in the IC50 assay; also called LC-92S

Columns and labels:
hVEGF109 [1] = target: T1, hVEGF109; test: phage competition ELISA (phage IC50), hVEGF109 in solution and on the plate, VEGF inferred
hVEGF109 [2] = target: T1, hVEGF109; test: BIACORE T200 SPR, hVEGF109 coupled to CM5 chip, Fab as analyte, VEGF inferred
[3] = target: T2, human Fc fusion of Ang2 protein; test: BIACORE T200 SPR, human Fc fusion of Ang2 captured by anti-human Fc, Fab as analyte, Ang2 inferred
hVEGF109 [4] = target: T1, hVEGF109; test: BIACORE SPR at 25 C; hVEGF109 immobilized on CM5 chip, variant clone as analyte (monovalent affinity)
[5] = target: T3, His-tagged human Ang2 (hAng2his8); test: BIACORE SPR at 25 C; hAng2his8 immobilized on CM5 chip, Fab as analyte (monovalent affinity)
hVEGF109 [6] = target: T1, hVEGF109; test: BIACORE SPR at 25 C; hVEGF109 immobilized on CM5 chip, Fab as analyte (monovalent affinity)

Row | Binder | IC50 (hVEGF109 [1]) [nM] | other results
1 | B1 | 3.71 | Kd (hVEGF109 [2]): 0.675 nM; Kd [3]: 0.259 nM
2 | B2 | 0.138 | 
3 | B3 |  | apparent Kd (pooled screen) (hVEGF109 [4]): 5 nM
4 | B4 | 2.55 | 
5 | B5 |  | Kd [5]: 1.51 nM; Kd (hVEGF109 [6]): < 0.003 nM
6 | B6 | 221 | 
7 | B7 | 0.48 | 
8 | B8 | 27.7 | 

Source: patent WO2016073157A1 (dated 2016)
